Measurements reported in the Immune Epitope Database (IEDB).

What follows are sequences tested against HLA-A*68:02 (assay: IEDB peptide-MHC binding, purified MHC/competitive/radioactivity; ≥ and ≤ were set here for values at or beyond the usual limits of such assays). Conditions: source organism: Hepacivirus hominis.
KLLIAILGPL gave an IC50 of 4230 nM.
With LIQDWIPPL the IC50 was 1420 nM.
LIVMLLFAGV gave an IC50 of 4290 nM.

Same assay, conditions: source organism: Mammarenavirus juninense
KSGLFQFFV gave an IC50 of 201 nM.

Same assay, conditions: source organism: Mammarenavirus machupoense
KSFFWFNEV gave an IC50 of 84 nM.

Same assay, conditions: source organism: SARS-CoV1
IMQVFFGYFA showed an IC50 of 4500 nM.
In the case of ITAIYVFCI, the IC50 is reported as 272 nM.
With ITMTTVYHI the IC50 was 6.1 nM.
Sequence IVAALVFLI has an IC50 of 0.58 nM.
IVDTVSALV was tested, and the IC50 was 301 nM.
Sequence IVNSVLLFL has an IC50 of 2090 nM.
KIILFLTLI gave an IC50 of 378 nM.
For KLIEYSDFA, the IC50 was 10 nM.
KLMGHFSWWT gave an IC50 of 2080 nM.
LAFVVFLLV gave an IC50 of 1000 nM.
In the case of LIANIFTPLV, the IC50 is reported as 19 nM.
Work on LIDFYLCFL yielded an IC50 of 93 nM.
For LIVAALVFL, the IC50 was 302 nM.
With LIVNSVLLFL the IC50 was 169 nM.

Same assay, conditions: source organism: Vaccinia virus WR
For IMETIDPVYI, the IC50 was 821 nM.
IMFMLIFNV showed an IC50 of 13 nM.
Sequence IMRVMANNV has an IC50 of 1180 nM.
In the case of IMSIGFEARI, the IC50 is reported as 61 nM.
With IMSMMNITRL the IC50 was 119 nM.
With IMTSTRTIIL the IC50 was 91 nM.
IQYRQQLEL was tested, and the IC50 was 3570 nM.
With ITDNGPMPYM the IC50 was 473 nM.
In the case of ITTLLNETA, the IC50 is reported as 70 nM.
Work on ITYCLVTHM yielded an IC50 of 1730 nM.
In the case of IVAAVIIMAI, the IC50 is reported as 95 nM.
IVAMLLTHGA showed an IC50 of 505 nM.
With IVCIVAAVII the IC50 was 2980 nM.
Work on IVDSMIIGHI yielded an IC50 of 53 nM.
IVILFIMFM showed an IC50 of 667 nM.
Sequence IVNCLSLSNL has an IC50 of 3590 nM.
In the case of IVNTTYDFL, the IC50 is reported as 750 nM.
IVPEFAKQYV gave an IC50 of 3.5 nM.
IVSKCIVQSV was tested, and the IC50 was 50 nM.
For IVTFINDYA, the IC50 was 84 nM.
IVVALSSLV was tested, and the IC50 was 5.4 nM.
IVVPVIDRL showed an IC50 of 35 nM.
For IVYGRSNAI, the IC50 was 6.1 nM.
Sequence IVYGRSNAIL has an IC50 of 642 nM.
In the case of KAKQLCYCPA, the IC50 is reported as 2460 nM.
KASTISWMM showed an IC50 of 2940 nM.
KIEDLINQLV showed an IC50 of 1050 nM.
KIMEIVSHL gave an IC50 of 1070 nM.
Sequence KIYTLIYRQL has an IC50 of 4670 nM.
KLFTHDIML showed an IC50 of 769 nM.
For KLLYAAEMV, the IC50 was 2810 nM.
KLPTLFGRGV gave an IC50 of 509 nM.
Work on KLYGYASLTT yielded an IC50 of 1740 nM.
Sequence KMAVEVGSI has an IC50 of 806 nM.
KQYDSTDFKM was tested, and the IC50 was 3540 nM.
KTANNYETI gave an IC50 of 1320 nM.
KTDGAVTSPL was tested, and the IC50 was 542 nM.
KVEKYLPEV showed an IC50 of 1520 nM.
Work on KVIKLVKSL yielded an IC50 of 366 nM.
For KVLSIMAFIL, the IC50 was 2970 nM.
KVTGSYNLV was tested, and the IC50 was 538 nM.
For KVYLSTFNM, the IC50 was 1820 nM.
With LAISAVYFKA the IC50 was 802 nM.
Work on LALKNSQAEL yielded an IC50 of 3660 nM.
In the case of LATLNTLITL, the IC50 is reported as 1040 nM.
With LAYYNSCMLT the IC50 was 4.9 nM.
Sequence LIAGIILLIL has an IC50 of 143 nM.
With LISFFGLFDI the IC50 was 82 nM.
LISLINSLV was tested, and the IC50 was 68 nM.
In the case of LIVILFIMFM, the IC50 is reported as 60 nM.
Work on LIYDDNIDSI yielded an IC50 of 199 nM.

The sequences below were run against HLA-A*02:01 in the same assay as above. Conditions: source organism: Hepacivirus hominis.
With KLLIAILGPL the IC50 was 67 nM.
LIQDWIPPL was tested, and the IC50 was 97 nM.
LIVMLLFAGV was tested, and the IC50 was 1470 nM.

Same assay, conditions: source organism: Mammarenavirus juninense
With KSGLFQFFV the IC50 was 17 nM.

Same assay, conditions: source organism: Mammarenavirus machupoense
With KSFFWFNEV the IC50 was 6.5 nM.

Same assay, conditions: source organism: SARS-CoV1
IMQVFFGYFA showed an IC50 of 290 nM.
For ITAIYVFCI, the IC50 was 127 nM.
In the case of ITMTTVYHI, the IC50 is reported as 8.2 nM.
IVAALVFLI showed an IC50 of 2.1 nM.
For IVDTVSALV, the IC50 was 58 nM.
IVNSVLLFL was tested, and the IC50 was 68 nM.
With KIILFLTLI the IC50 was 141 nM.
With KLIEYSDFA the IC50 was 0.54 nM.
Sequence KLMGHFSWWT has an IC50 of 6.4 nM.
LAFVVFLLV was tested, and the IC50 was 610 nM.
For LIANIFTPLV, the IC50 was 12 nM.
LIDFYLCFL was tested, and the IC50 was 0.9 nM.
Sequence LIVAALVFL has an IC50 of 18 nM.
LIVNSVLLFL gave an IC50 of 27 nM.

Same assay, conditions: source organism: Vaccinia virus WR
In the case of IMETIDPVYI, the IC50 is reported as 127 nM.
In the case of IMFMLIFNV, the IC50 is reported as 12 nM.
With IMRVMANNV the IC50 was 311 nM.
In the case of IMSIGFEARI, the IC50 is reported as 1590 nM.
For IMSMMNITRL, the IC50 was 284 nM.
With IMTSTRTIIL the IC50 was 540 nM.
Sequence IQYRQQLEL has an IC50 of 258 nM.
ITDNGPMPYM showed an IC50 of 473 nM.
Work on ITTLLNETA yielded an IC50 of 635 nM.
Work on ITYCLVTHM yielded an IC50 of 3100 nM.
In the case of IVAAVIIMAI, the IC50 is reported as 4430 nM.
Sequence IVAMLLTHGA has an IC50 of 4910 nM.
Work on IVCIVAAVII yielded an IC50 of 1960 nM.
With IVDSMIIGHI the IC50 was 1060 nM.
IVILFIMFM gave an IC50 of 576 nM.
IVNCLSLSNL was tested, and the IC50 was 1930 nM.
In the case of IVNTTYDFL, the IC50 is reported as 1050 nM.
Work on IVPEFAKQYV yielded an IC50 of 5 nM.
IVSKCIVQSV was tested, and the IC50 was 612 nM.
In the case of IVTFINDYA, the IC50 is reported as 4320 nM.
With IVVALSSLV the IC50 was 108 nM.
With IVVPVIDRL the IC50 was 241 nM.
Work on IVYGRSNAI yielded an IC50 of 228 nM.
In the case of IVYGRSNAIL, the IC50 is reported as 724 nM.
With KAKQLCYCPA the IC50 was 1500 nM.
With KASTISWMM the IC50 was 1410 nM.
Sequence KIEDLINQLV has an IC50 of 286 nM.
With KIMEIVSHL the IC50 was 76 nM.
Sequence KIYTLIYRQL has an IC50 of 4020 nM.
Sequence KLFTHDIML has an IC50 of 1.4 nM.
KLLYAAEMV showed an IC50 of 48 nM.
KLPTLFGRGV showed an IC50 of 273 nM.
In the case of KLYGYASLTT, the IC50 is reported as 19 nM.
Work on KMAVEVGSI yielded an IC50 of 155 nM.
In the case of KQYDSTDFKM, the IC50 is reported as 309 nM.
KTANNYETI was tested, and the IC50 was 2240 nM.
KTDGAVTSPL gave an IC50 of 1080 nM.
Work on KVEKYLPEV yielded an IC50 of 17 nM.
KVIKLVKSL was tested, and the IC50 was 395 nM.
Sequence KVLSIMAFIL has an IC50 of 88 nM.
KVTGSYNLV was tested, and the IC50 was 754 nM.
KVYLSTFNM was tested, and the IC50 was 535 nM.
In the case of LAISAVYFKA, the IC50 is reported as 770 nM.
LALKNSQAEL gave an IC50 of 3760 nM.
Sequence LATLNTLITL has an IC50 of 848 nM.
In the case of LAYYNSCMLT, the IC50 is reported as 485 nM.
LIAGIILLIL showed an IC50 of 540 nM.
LISFFGLFDI was tested, and the IC50 was 175 nM.
LISLINSLV showed an IC50 of 15 nM.
LIVILFIMFM gave an IC50 of 139 nM.
LIYDDNIDSI showed an IC50 of 658 nM.

These sequences were tested against HLA-A*02:06 in the same assay as above. Conditions: source organism: Hepacivirus hominis.
Work on KLLIAILGPL yielded an IC50 of 12 nM.
In the case of LIQDWIPPL, the IC50 is reported as 54 nM.
In the case of LIVMLLFAGV, the IC50 is reported as 169 nM.

Same assay, conditions: source organism: Mammarenavirus juninense
Work on KSGLFQFFV yielded an IC50 of 8.1 nM.

Same assay, conditions: source organism: Mammarenavirus machupoense
Work on KSFFWFNEV yielded an IC50 of 3.2 nM.

Same assay, conditions: source organism: SARS-CoV1
IMQVFFGYFA was tested, and the IC50 was 51 nM.
Sequence ITAIYVFCI has an IC50 of 132 nM.
With ITMTTVYHI the IC50 was 2.3 nM.
IVAALVFLI showed an IC50 of 1.8 nM.
With IVDTVSALV the IC50 was 43 nM.
IVNSVLLFL gave an IC50 of 30 nM.
With KIILFLTLI the IC50 was 24 nM.
With KLIEYSDFA the IC50 was 0.71 nM.
KLMGHFSWWT showed an IC50 of 99 nM.
For LAFVVFLLV, the IC50 was 253 nM.
Work on LIANIFTPLV yielded an IC50 of 16 nM.
Sequence LIDFYLCFL has an IC50 of 11 nM.
LIVAALVFL showed an IC50 of 11 nM.
With LIVNSVLLFL the IC50 was 11 nM.

Same assay, conditions: source organism: Vaccinia virus WR
With IMETIDPVYI the IC50 was 349 nM.
Work on IMFMLIFNV yielded an IC50 of 13 nM.
Sequence IMRVMANNV has an IC50 of 2500 nM.
IMSIGFEARI gave an IC50 of 1600 nM.
For IMSMMNITRL, the IC50 was 585 nM.
Sequence IMTSTRTIIL has an IC50 of 438 nM.
For IQYRQQLEL, the IC50 was 41 nM.
Sequence ITDNGPMPYM has an IC50 of 303 nM.
In the case of ITTLLNETA, the IC50 is reported as 596 nM.
ITYCLVTHM gave an IC50 of 1410 nM.
In the case of IVAAVIIMAI, the IC50 is reported as 4510 nM.
IVAMLLTHGA was tested, and the IC50 was 82 nM.
Sequence IVCIVAAVII has an IC50 of 3550 nM.
Sequence IVDSMIIGHI has an IC50 of 561 nM.
IVILFIMFM showed an IC50 of 741 nM.
IVNCLSLSNL was tested, and the IC50 was 1280 nM.
